In patent publication US20110165161A1, “ANTI-EPCAM ANTIBODIES THAT INDUCE APOPTOSIS OF CANCER CELLS AND METHODS USING SAME” (priority 2009, published 2011):
Residue numbers refer to the chain shown, from its start.

Legend:
[1] = target: T1, EGFI-Cr1 wild type (first EGF-like repeat of human EpCAM fused to the constant region of human immunoglobulin … (human, UniProt P01857-1 99-330 = IgG part)); assay: direct ELISA, coated EGFI-Cr1 fusion, 0.1 µg/ml antibody
T1 construct: cDNA covered aa 1-63; Expressed in COS-7 cells; also called WT; EpCAM EGF-1 fusion protein WT
Procedure: (§1) A direct ELISA was used for testing the reactivity of anti-EpCAM antibodies toward variant EpCAM mutants. Briefly, purified EpCAM EGF-1 fusion proteins (WT, Q24A, E25K, E26D, A35T, N37R, F39A, V40E, N41A, N42E, N43A, R44G, Q45A, Q47A or T49A) and irrelevant control (CEA-Cr1) were pre-diluted to 0.5 μg/ml in coating buffer (8.4 g NaHCO₃, 3.4 g Na₂CO₃ in 1 L H₂O, pH 9.5) and aliquoted (100 μl/well) into 96-well plates. […] Plates were then washed 3 times with PBST followed by the addition of the enzyme substrate TMB (BD Biosciences, Cat. No. 555214). […] The optical densities at 450 nm wavelength were measured on an ELISA plate reader.

[2] = target: T2, EGFI-Cr1 Q47A (human, UniProt P16422 24-63); assay: as above
T2 construct: not shown: the constant region of human immunoglobulin gamma 1 heavy chain (Cr1) fused at the C-terminus
T2 chain: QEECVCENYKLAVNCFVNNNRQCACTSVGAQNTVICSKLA
Procedure: as §1

[3] = target: T3, EGFI-Cr1 N37R (human); assay: as above
T3 construct: not shown: The fused constant region of human immunoglobulin gamma 1 heavy chain (Cr1)
T3 chain: T2 chain with N14R, A24Q
Procedure: as §1

[4] = target: T4, EGFI-Cr1 A35T (human, UniProt P16422 24-63); assay: as above
T4 construct: not shown: The fused constant region of human immunoglobulin gamma 1 heavy chain (Cr1)
T4 chain: T2 chain with A12T, A24Q
Procedure: as §1

[5] = target: T5, EGFI-Cr1 Q45A (human, UniProt P16422 24-63); assay: as above
T5 construct: not shown: the constant region of human immunoglobulin gamma 1 heavy chain (Cr1) fused at the C-terminus
T5 chain: T2 chain with Q22A, A24Q
Procedure: as §1

[6] = target: T6, EGFI-Cr1 Q24A (human, UniProt P16422 25-63); assay: as above
T6 construct: not shown: The fused constant region of human immunoglobulin gamma 1 heavy chain (Cr1)
T6 chain: T2 chain with Q1A, A24Q
Procedure: as §1

[7] = target: T7, EGFI-Cr1 R44G (human, UniProt P16422 24-63); assay: as above
T7 construct: not shown: the constant region of human immunoglobulin gamma 1 heavy chain (Cr1) fused at the C-terminus
T7 chain: T2 chain with R21G, A24Q
Procedure: as §1

[8] = target: T8, EGFI-Cr1 V40E (human); assay: as above
T8 construct: not shown: The fused constant region of human immunoglobulin gamma 1 heavy chain (Cr1)
T8 chain: T2 chain with V17E, A24Q
Procedure: as §1

[9] = target: T9, EGFI-Cr1 E25K (human, UniProt P16422 24-63); assay: as above
T9 construct: not shown: The fused constant region of human immunoglobulin gamma 1 heavy chain (Cr1)
T9 chain: T2 chain with E2K, A24Q
Procedure: as §1

[10] = target: T10, EGFI-Cr1 N42E (human, UniProt P16422 24-63); assay: as above
T10 construct: not shown: the constant region of human immunoglobulin gamma 1 heavy chain (Cr1) fused at the C-terminus
T10 chain: T2 chain with N19E, A24Q
Procedure: as §1

[11] = target: T11, EGFI-Cr1 N43A (human, UniProt P16422 24-63); assay: as above
T11 construct: not shown: the constant region of human immunoglobulin gamma 1 heavy chain (Cr1) fused at the C-terminus
T11 chain: T2 chain with N20A, A24Q
Procedure: as §1

[12] = target: T12, EGFI-Cr1 F39A (human, UniProt P16422 24-63); assay: as above
T12 construct: not shown: The fused constant region of human immunoglobulin gamma 1 heavy chain (Cr1)
T12 chain: T2 chain with F16A, A24Q
Procedure: as §1

[13] = target: T13, EGFI-Cr1 E26D (human, UniProt P16422 24-63); assay: as above
T13 construct: not shown: The fused constant region of human immunoglobulin gamma 1 heavy chain (Cr1)
T13 chain: T2 chain with E3D, A24Q
Procedure: as §1

[14] = target: T14, EGFI-Cr1 T49A (human, UniProt P16422 24-63); assay: as above
T14 construct: not shown: the constant region of human immunoglobulin gamma 1 heavy chain (Cr1) fused at the C-terminus
T14 chain: T2 chain with A24Q, T26A
Procedure: as §1

[15] = target: T15, EGFI-Cr1 N41A (human, UniProt P16422 24-63); assay: as above
T15 construct: not shown: The fused constant region of human immunoglobulin gamma 1 heavy chain (Cr1)
T15 chain: T2 chain with N18A, A24Q
Procedure: as §1

[16] = target: T16, human EpCAM (epithelial cell adhesion/activating molecule) (human, UniProt P16422 24-314); assay: cell-based or functional assay
T16 sequence: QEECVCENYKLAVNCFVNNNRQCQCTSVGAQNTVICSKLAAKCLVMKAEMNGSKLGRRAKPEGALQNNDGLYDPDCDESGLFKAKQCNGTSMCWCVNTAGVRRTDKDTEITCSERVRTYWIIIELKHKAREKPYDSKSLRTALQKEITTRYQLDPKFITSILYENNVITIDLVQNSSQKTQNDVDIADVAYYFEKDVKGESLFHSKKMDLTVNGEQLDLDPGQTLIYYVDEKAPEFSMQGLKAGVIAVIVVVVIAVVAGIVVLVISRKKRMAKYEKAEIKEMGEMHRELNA

[17] = target: T16, human EpCAM (epithelial cell …); assay: cell-based or functional assay; remark: listed apart in the source
[18] = target: T16, human EpCAM (epithelial cell …); assay: flow cytometry, CHO/EpCAM cells, 0.1 µg/ml antibody
Procedure: A 300× dilution of human cell hyper-immune serum (HPS 300×) was used as binding positive control for both cell lines here. After 1 hr incubation at 4° C., cells were washed twice with 200 μl FACS buffer (1×PBS containing 1% FBS), stained with 100 μl of 1 μg/ml goat-anti-mouse IgG-PE (Southern Biotech, Cat. No. 1032-09) in FACS buffer and then incubated at 4° C. for 30 min. Cells were washed thrice with FACS buffer and analyzed by flow cytometry (BD LSR, BD Life Sciences).

B1: murine monoclonal antibody 12H8 (antibody, mouse IgG2a, V domains shown)
VH: QIQLVQSGPELKKPGETVKISCKTSGYTFTDYSMHWVNQAPGKGLKWMGWINTETGEPTYTDDFKGRFAFSLETSASTAYLQINNLKNEDTATYFCARTAVYWGQGTTLTVSS
VL: DIQMTQSPSSLSASLGERVSLTCRASQEISGSLSWLQQKPDGTIKRLIYAASTLNSGVPKRFSGRRSGSDYSLTISSLESEDFVDYYCLQYSSYPWSFGGGTKLEIKR
notes: Mouse IgG2a, kappa, from hybridoma; also called m342-12H8.3; m12H8
For B1, the “relative binding activity (% of WT)” value [1] was 100%, the “relative binding activity (% of WT)” value [2] was 93% and the “relative binding activity (% of WT)” value [3] was 94%. For the same binder, the “relative binding activity (% of WT)” value [4] was 95%, the “relative binding activity (% of WT)” value [5] was 89% and the “relative binding activity (% of WT)” value [6] was 0%. For the same binder, the “relative binding activity (% of WT)” value [7] was 91%, the “relative binding activity (% of WT)” value [8] was 93% and the “relative binding activity (% of WT)” value [9] was 1%. For the same binder, the “relative binding activity (% of WT)” value [10] was 23%, the “relative binding activity (% of WT)” value [11] was 96% and the “relative binding activity (% of WT)” value [12] was 96%. The “relative binding activity (% of WT)” value [13] was 94%, the “relative binding activity (% of WT)” value [14] was 94% and the “relative binding activity (% of WT)” value [15] was 81%. The “% of Annexin V + PI staining (untreated background subtracted), NCI-H358, 10 µg/ml mAb, Exp1” value [16] was 36%, the “% of Annexin V + PI staining (untreated background subtracted), NCI-H358, 10 µg/ml mAb, Exp2” value [16] was 33% and the “% of Annexin V + PI staining (untreated background subtracted), NCI-H358, 10 µg/ml mAb, Exp3” value [16] was 31%. The “% of Annexin V + PI staining (untreated background subtracted), NCI-H358, 10 µg/ml mAb, Exp4” value [16] was 40%, the “% of Annexin V + PI staining (untreated background subtracted), NCI-H358, 10 µg/ml mAb, Exp5” value [16] was 28% and the “% Annexin V/PI-positive cells, DLD-1, 1.0 µg/ml mAb” value [17] was 61%. For the same binder, the “% Annexin V/PI-positive cells, DLD-1, 3.0 µg/ml mAb” value [17] was 67%, the “% Annexin V/PI-positive cells, DLD-1, 10 µg/ml mAb” value [17] was 72% and the “% Annexin V/PI-positive cells, FaDu, 1.0 µg/ml mAb” value [17] was 42%. The “% Annexin V/PI-positive cells, FaDu, 3.0 µg/ml mAb” value [17] was 43%, the “% Annexin V/PI-positive cells, FaDu, 10 µg/ml mAb” value [17] was 44% and the “% Annexin V/PI-positive cells, LNCaP, 1.0 µg/ml mAb” value [17] was 61%. For the same binder, the “% Annexin V/PI-positive cells, LNCaP, 3.0 µg/ml mAb” value [17] was 67%, the “% Annexin V/PI-positive cells, LNCaP, 10 µg/ml mAb” value [17] was 58% and the “% Annexin V/PI-positive cells, NCI-H520, 1.0 µg/ml mAb” value [17] was 24%. The “% Annexin V/PI-positive cells, NCI-H520, 3.0 µg/ml mAb” value [17] was 29%, the “% Annexin V/PI-positive cells, NCI-H520, 10 µg/ml mAb” value [17] was 34% and the “% Annexin V/PI-positive cells, NCI-N87, 1.0 µg/ml mAb” value [17] was 67%. For the same binder, the “% Annexin V/PI-positive cells, NCI-N87, 3.0 µg/ml mAb” value [17] was 62%, the “% Annexin V/PI-positive cells, NCI-N87, 10 µg/ml mAb” value [17] was 66% and the “% Annexin V/PI-positive cells, NIH:OVCAR-3, 1.0 µg/ml mAb” value [17] was 59%. For the same binder, the “% Annexin V/PI-positive cells, NIH:OVCAR-3, 3.0 µg/ml mAb” value [17] was 62%, the “% Annexin V/PI-positive cells, NIH:OVCAR-3, 10 µg/ml mAb” value [17] was 63% and the “% Annexin V/PI-positive cells, T-47D, 1.0 µg/ml mAb” value [17] was 49%. For the same binder, the “% Annexin V/PI-positive cells, T-47D, 3.0 µg/ml mAb” value [17] was 54%, the “% Annexin V/PI-positive cells, T-47D, 10 µg/ml mAb” value [17] was 56% and the MFI [18] was 6650 MFI.
